Laboratory results: patent US6525022B1, “Receptor specific atrial natriuretic peptides” (Genentech, Inc., priority 1993, dated 2003)
Bridges are numbered along the chain shown (N, C = ends). Where no end group is shown, it is not given here.

Key:
[1] = target: human NEP (hNEP), endopeptidase 24.11 (Homo sapiens, UniProt P08473); assay: in vitro; conditions: Half-Life (min.)
Protocol: The half-life of various ANF variants was measured according to the following procedure.
ANF Solution: An accurately weighed amount of ANF or variant thereof was diluted with HEPES buffer (5 ml of 1 M HEPES Buffer and 0.1 ml of Tween 20 diluted to a 100 ml volume with DI water) to make a 0.5 mg/ml solution.
hNEP/HEPES Solution: 7.5 μl of a 1 mg/ml solution of hNEP (see U.S. Pat. No. 4,960,700) is dissolved in 992.5 μl of HEPES buffer (as described above) and vortex mixed. The resulting mixture is stored in a silylated Eppendorf tube and periodically checked for activity against an ANF peptide standard.
Assay conditions: 150 μl of an ANF solution in the HEPES buffer is diluted with 820 μl HEPES buffer and vortex mixed (1 sec). Careful note of the time is taken as 30 μl of the hNEP/HEPES solution is added and the solution is vortex mixed for 1 sec. and analyzed by periodic removal of constant volume aliquots by the HPLC autosampler. A 2.5 cm×50 cm, C-18 reversed-phase column (15 micron, 300 Å]) was used and elution was achieved by using a shallow gradient of increasing acetonitrile. The elution conditions consisted of a 10% to 50% acetonitrile (containing 0.1% TFA) gradient at 0.5% min.^−1. The aqueous phase was 0.1% TFA in water. The peak area of the ANP peptide is recorded at these periodic intervals and a half-life is determined from these values.

[2] = target: T1, hNPR-C (Homo sapiens, UniProt P17342); assay: Competitive binding to membranes from cells expressing human NPR-C; parameters: expressed in transfected cells; conditions: FIG. 19, in comparison to rat ANP
T1 sequence (P17342 27-541): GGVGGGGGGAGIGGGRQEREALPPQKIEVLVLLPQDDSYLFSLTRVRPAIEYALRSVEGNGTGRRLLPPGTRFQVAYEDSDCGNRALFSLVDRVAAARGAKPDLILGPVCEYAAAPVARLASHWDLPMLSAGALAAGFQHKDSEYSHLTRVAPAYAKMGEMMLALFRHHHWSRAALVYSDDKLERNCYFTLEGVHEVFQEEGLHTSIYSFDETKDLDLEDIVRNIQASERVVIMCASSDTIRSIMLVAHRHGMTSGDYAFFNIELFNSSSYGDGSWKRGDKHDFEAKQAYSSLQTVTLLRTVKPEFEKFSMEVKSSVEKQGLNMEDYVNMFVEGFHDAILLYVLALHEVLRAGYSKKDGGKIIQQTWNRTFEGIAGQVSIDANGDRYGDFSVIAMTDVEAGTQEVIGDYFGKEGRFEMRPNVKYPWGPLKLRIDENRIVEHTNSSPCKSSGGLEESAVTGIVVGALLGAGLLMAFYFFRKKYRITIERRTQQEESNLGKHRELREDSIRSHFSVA
Protocol: Membrane preparation. Stable cell lines expressing human NPR-A (Lowe and Fendly, J. Biol. Chem. 267:21691-21697 (1992)) or human NPR-C (Cunningham et al., EMBO J 13, 2508-2515 (1994)) were removed from cell culture dishes with 0.5 mM EDTA in phosphate buffered saline (PBS), placed in ice cold PBS and centrifuged at 228 g for 10 min at 4° C. The cell pellets were resuspended in ice-cold homogenization buffer (50 mM HEPES, 1 mM EDTA, 1 mM DTT, 0.25 M sucrose, 0.7 mg/mL pepstatin A, 0.5 mg/mL leupeptin and 1 mM PMSF, pH 7.4). The cells were then homogenized using a Brinkman polytron at setting 5 for 30 sec. The homogenate was centrifuged at 400×g for 10 min at 4° C. The supernatant was collected and centrifuged at 100,000×g for 30 min at 4° C. […] Protein concentrations was determined using the Biorad protein assay with IgG as a standard.
Membrane competition binding assays. […] The plates were washed six times with PBS, then air dried prior to adding scintillant and counted in a Packard Topcount scintillation counter for 1 min/well. Binding was measured in duplicate for each concentration of competitor.
Data analysis. The competition binding curves and cGMP production dose responses were analyzed by the four-parameter logistic equation with the KaleidaGraph™ program (Synergy Software, PA) to obtain estimates of the IC50 or EC50 values. […]

[3] = target: T2, human natriuretic peptide receptor-A expressed in 293 cells (Homo sapiens, UniProt P16066); assay: cGMP production in 293 cells expressing hNPR-A; format: cell-based
T2 construct: expressed in transfected cells
T2 sequence (P16066 33-1061): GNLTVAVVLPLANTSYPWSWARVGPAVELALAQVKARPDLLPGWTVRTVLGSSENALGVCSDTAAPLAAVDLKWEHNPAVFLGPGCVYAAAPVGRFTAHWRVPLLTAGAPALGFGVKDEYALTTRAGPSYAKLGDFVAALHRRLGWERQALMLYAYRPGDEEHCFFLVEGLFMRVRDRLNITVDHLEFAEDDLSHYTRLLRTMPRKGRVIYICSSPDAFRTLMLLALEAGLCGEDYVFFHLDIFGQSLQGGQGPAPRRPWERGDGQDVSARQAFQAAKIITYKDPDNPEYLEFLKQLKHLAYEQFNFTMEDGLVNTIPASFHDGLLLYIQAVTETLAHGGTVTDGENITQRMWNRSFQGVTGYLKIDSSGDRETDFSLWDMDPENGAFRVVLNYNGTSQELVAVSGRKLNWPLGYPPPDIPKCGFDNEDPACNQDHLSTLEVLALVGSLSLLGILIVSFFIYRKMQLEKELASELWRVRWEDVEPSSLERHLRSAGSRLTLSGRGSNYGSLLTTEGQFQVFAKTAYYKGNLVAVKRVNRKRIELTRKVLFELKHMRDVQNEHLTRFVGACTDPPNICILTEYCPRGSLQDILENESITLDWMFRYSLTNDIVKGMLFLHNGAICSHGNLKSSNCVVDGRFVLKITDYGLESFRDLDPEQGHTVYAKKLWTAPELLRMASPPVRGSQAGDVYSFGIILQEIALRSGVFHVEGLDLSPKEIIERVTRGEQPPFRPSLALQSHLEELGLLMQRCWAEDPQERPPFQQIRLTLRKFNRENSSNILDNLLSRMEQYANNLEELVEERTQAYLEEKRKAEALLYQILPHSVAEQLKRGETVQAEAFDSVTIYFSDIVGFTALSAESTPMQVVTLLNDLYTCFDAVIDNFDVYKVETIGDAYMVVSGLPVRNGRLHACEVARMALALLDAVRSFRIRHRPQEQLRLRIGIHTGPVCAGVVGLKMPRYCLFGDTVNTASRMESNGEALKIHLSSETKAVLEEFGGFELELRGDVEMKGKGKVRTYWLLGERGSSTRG
Protocol: Stable 293 cell lines were maintained in glycine free F-12/Dulbecco's minimal essential medium (50/50, v/v) with 10% dialyzed fetal calf serum, 10 mM Hepes, […] of G418 (Geneticin, GIBCO/BRL), pH 7.2, in a humidified incubator at 37° C. with 7% CO2, 93% air. Cells were passaged using 136.8 mM NaCL, 2.6 mM KCl, 7.9 mM Na2HPO4, 1.4 mM KH2PO4, pH 7.2 (PBS) with 0.5 mM EDTA. For concentration-response experiments log phase cultures of 293 cell lines were passaged to 12 well plates at a density of 2.5×10^5 cells/well. After 48 hours cultures were approximately 50% confluent, and were used for stimulation of cGMP production. Peptide treatments were carried out essentially as described by Lowe and Fendly (1992). Briefly, dried peptide aliquots were resuspended in 0.1% (v/v) acetic acid to a stock concentration of 50 μM, and diluted to 1 μM in F-12/Dulbecco's minimal essential medium (50/50, v/v) with 25 mM Hepes, 0.1% (w/v) bovine serum albumin, 0.1 mM isobutylmethylxanthine at pH 7.2 (stimulation medium). Five-fold serial dilutions were prepared in stimulation medium using polypropylene tubes, then prewarmed to 37° C. before use. Cell culture medium was aspirated prior to adding 0.5 ml of stimulation medium plus peptides to monolayer cultures for 10 minutes at 37° C. Reactions were stopped by addition of 0.5 ml of ice cold 12% trichloroacetic acid to give a final volume of 1 ml. Culture plates were frozen on dry ice and stored at −20° C. prior to assay. For cGMP measurements samples were thawed at room temperature, and processed as described by Koller et al., Science 252:120-123 (1991), for cGMP radioimmunoassay (Biomedical Technologies, Inc). All stimulations were performed in triplicate, and samples were measured in duplicate for cGMP by radioimmumoassay. Predicted peptide concentrations were corrected based on quantitative amino acid analysis of duplicate samples from the same set of peptide aliquots used for the stimulation experiments.
Data analysis. The competition binding curves and cGMP production dose responses were analyzed by the four-parameter logistic equation with the KaleidaGraph™ program (Synergy Software, PA) to obtain estimates of the IC50 or EC50 values. The non linear least-squares curve fitting program SCATPLOT was used to analyze the competition binding curves according to a one-site or two-site binding model for competitor. A two-site binding model is reported when the fit to the data was statistically better (p<0.05) than a one-site fit.

[4] = target: human neutral endopeptidase 24.11 (human) (UniProt P08473); assay: cell-based or functional assay
[5] = target: human natriuretic peptide receptor-A (human) (UniProt P16066); assay: competition binding, Table I; tracer and receptor format not given
[6] = target: T3, human natriuretic peptide clearance receptor-C (human) (UniProt P17342); assay: as above
T3 sequence (looked up): T1 sequence (P17342 27-541)

[7] = target: T4, human natriuretic peptide clearance receptor-C (human, UniProt P17342 27-541); assay: analysis of variants in receptor binding
T4 construct: whole, on cells; also called hNPR-C; human NPR-C
T4 sequence (looked up): T1 sequence (P17342 27-541)

[8] = target: T5, human natriuretic peptide receptor-A (human, UniProt P16066 33-1061); assay: competition binding, Table I; tracer and receptor format not given
T5 construct: whole, on cells; also called hNPR-A; human NPR-A
T5 sequence (looked up): T2 sequence (P16066 33-1061)

[9] = target: T4, human natriuretic peptide clearance …; assay: as above
[10] = target: human neutral endopeptidase 24.11 (human, UniProt P08473 2-750, limits assumed); assay: cell-based or functional assay
human neutral endopeptidase 24.11, sequence (P08473 2-750 limits assumed): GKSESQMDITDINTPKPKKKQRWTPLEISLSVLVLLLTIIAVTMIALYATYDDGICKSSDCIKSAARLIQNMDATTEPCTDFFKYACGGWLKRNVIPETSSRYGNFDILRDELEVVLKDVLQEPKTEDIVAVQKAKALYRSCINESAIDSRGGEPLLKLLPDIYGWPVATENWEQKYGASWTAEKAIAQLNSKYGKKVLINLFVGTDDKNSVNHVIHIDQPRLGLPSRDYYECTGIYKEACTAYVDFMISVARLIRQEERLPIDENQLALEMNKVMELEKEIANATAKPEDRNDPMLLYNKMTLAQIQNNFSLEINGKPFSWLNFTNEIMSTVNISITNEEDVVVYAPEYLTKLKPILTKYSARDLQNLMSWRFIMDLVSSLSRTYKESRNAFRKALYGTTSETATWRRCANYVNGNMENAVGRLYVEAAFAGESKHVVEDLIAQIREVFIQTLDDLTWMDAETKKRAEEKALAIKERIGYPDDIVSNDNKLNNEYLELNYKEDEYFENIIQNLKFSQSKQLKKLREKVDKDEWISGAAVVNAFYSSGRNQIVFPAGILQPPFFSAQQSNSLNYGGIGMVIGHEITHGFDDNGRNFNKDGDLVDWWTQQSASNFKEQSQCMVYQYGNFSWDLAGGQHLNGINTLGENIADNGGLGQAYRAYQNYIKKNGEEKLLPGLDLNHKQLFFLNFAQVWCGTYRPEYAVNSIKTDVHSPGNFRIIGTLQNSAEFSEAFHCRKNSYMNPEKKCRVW

human NEP (hNEP), endopeptidase 24.11, sequence (P08473 whole entry): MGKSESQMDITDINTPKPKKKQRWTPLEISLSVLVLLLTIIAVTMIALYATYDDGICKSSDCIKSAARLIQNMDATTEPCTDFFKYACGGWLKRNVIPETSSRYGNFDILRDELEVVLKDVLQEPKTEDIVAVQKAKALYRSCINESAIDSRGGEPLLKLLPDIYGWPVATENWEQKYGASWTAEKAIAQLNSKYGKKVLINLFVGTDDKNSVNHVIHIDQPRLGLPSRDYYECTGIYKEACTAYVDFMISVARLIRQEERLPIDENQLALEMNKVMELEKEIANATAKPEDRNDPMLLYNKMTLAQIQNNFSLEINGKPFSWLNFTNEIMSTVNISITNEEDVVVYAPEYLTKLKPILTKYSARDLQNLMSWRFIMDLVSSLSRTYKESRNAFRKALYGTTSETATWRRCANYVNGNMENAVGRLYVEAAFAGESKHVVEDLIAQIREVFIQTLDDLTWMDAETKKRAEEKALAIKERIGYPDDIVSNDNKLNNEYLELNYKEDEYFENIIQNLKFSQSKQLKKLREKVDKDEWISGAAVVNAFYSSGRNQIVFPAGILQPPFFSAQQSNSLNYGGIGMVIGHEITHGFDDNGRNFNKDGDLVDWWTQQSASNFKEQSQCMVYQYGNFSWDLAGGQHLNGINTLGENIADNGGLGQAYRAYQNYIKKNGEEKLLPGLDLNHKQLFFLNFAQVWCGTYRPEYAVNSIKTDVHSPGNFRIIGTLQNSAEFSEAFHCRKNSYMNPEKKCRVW
human neutral endopeptidase 24.11 (human), sequence (P08473 2-750 limits assumed): as the sequence (P08473 2-750 limits assumed) above

Question: Which half-life at 32 nM/ml [1] does the source give for CC[C@H](C)[C@@H]1NC(=O)[C@H](CCCNC(=N)N)NC(=O)[C@H](CC(=O)O)NC(=O)[C@H]([C@@H](C)CC)NC(=O)[C@H](CO)NC(=O)CNC(=O)[C@H]([C@@H](C)O)NC(=O)[C@H](Cc2ccccc2)NC(=O)[C@@H](N(C)C(=O)[C@H](CO)NC(=O)[C@H](CO)NC(=O)[C@H](CCCNC(=N)N)NC(=O)[C@H](CCCNC(=N)N)NC(=O)[C@H](CC(C)C)NC(=O)[C@@H](N)CO)CSSC[C@@H](C(=O)N[C@@H](CC(N)=O)C(=O)N[C@@H](CO)C(=O)N[C@@H](Cc2ccccc2)C(=O)N[C@@H](CCCNC(=N)N)C(=O)N[C@@H](Cc2ccc(O)cc2)C(=O)O)NC(=O)CNC(=O)[C@H](CC(C)C)NC(=O)CNC(=O)[C@H](CO)NC(=O)[C@H](CCC(N)=O)NC(=O)[C@H](C)NC(=O)[C@H](CCCNC(=N)N)NC1=O [ANF 82] here?
Answer: 6.08 h

Question: How did the half-life at 32 nM/ml [1] turn out when CC[C@H](C)[C@@H]1NC(=O)[C@H](CCCNC(=N)N)NC(=O)[C@H](CC(=O)O)NC(=O)[C@H]([C@@H](C)CC)NC(=O)[C@H](CO)NC(=O)CNC(=O)[C@H]([C@@H](C)O)NC(=O)[C@H](Cc2ccccc2)N(C)C(=O)[C@@H](NC(=O)[C@H](CO)NC(=O)[C@H](CO)NC(=O)[C@H](CCCNC(=N)N)NC(=O)[C@H](CCCNC(=N)N)NC(=O)[C@H](CC(C)C)NC(=O)[C@@H](N)CO)CSSC[C@@H](C(=O)N[C@@H](CC(N)=O)C(=O)N[C@@H](CO)C(=O)N[C@@H](Cc2ccccc2)C(=O)N[C@@H](CCCNC(=N)N)C(=O)N[C@@H](Cc2ccc(O)cc2)C(=O)O)NC(=O)CNC(=O)[C@H](CC(C)C)NC(=O)CNC(=O)[C@H](CO)NC(=O)[C@H](CCC(N)=O)NC(=O)[C@H](C)NC(=O)[C@H](CCCNC(=N)N)NC1=O [ANF 83] was run?
Answer: 15.5 h

Question: How did the “Binding to human NPR-C membranes, competition for 125I-rat ANP” value [2] turn out when “Ser-Leu-Arg-Arg-Ser-Ser-Cys-Phe-Gly-Gly-Arg-Ile-Asp-Arg-Ile-Arg-Glu-Ala-Ser-Gly-Leu-Gly-Cys-Asn-Ser-Phe-Arg-Tyr (SEQ ID NO: 24), Cys^7-Cys^23 disulfide (SLRRSSCFGGRIDRIREASGLGCNSFRY; disulfide 7-23) [ANF 99]” was run?
Answer: reduced affinity

Question: And the “Potency in cGMP production compared with rat ANP” value [3]?
Answer: equipotent

Question: What about the “Stimulation of cGMP production (agonist efficacy)” value [3] of the same molecule?
Answer: efficacious

Question: What does the source list for ANF 31 (peptide)?
Answer: Half-Life [4]: 2.97 h; IC50 [5]: 0.052 nM; IC50 [6]: 3210 nM

Question: With SLRRSSCFGGRMDRIRAQSGLGCNSFRY (disulfide 7-23 (inferred), also called hANF G16R) [hANF(1-28) G16R] as the molecule, how does the “fold reduction of affinity against wild type” value [7] read?
Answer: ~150 fold

B1: ANF 51 (peptide)
peptide: SLRRSSCFERPMDRIGAQSGLGCNSFRY
modifications: disulfide 7-23
notes: Cys7-Cys23 disulfide; also called hANF(1-28) G9E, G10R, R11P
Question: B1 was tested. Which IC50 [8] did it give?
Answer: 4.55 nM

Question: What about the IC50 [9] of the same molecule?
Answer: 32.2 nM

Question: And the “Half-life at 0.075 µg/ml NEP” value [10]?
Answer: 32.1 h

Question: What about the “Half-life at 0.15 µg/ml NEP” value [10] of the same molecule?
Answer: 4.48 h
